These results are taken from patent US11726088B2, “Sirtuin 4 (SIRT4) lipoamidase activity and uses thereof” (THE TRUSTEES OF PRINCETON UNIVERSITY, priority 2014, dated 2023).

In data set [1] the target is T1, SIRT4 (Homo sapiens, UniProt Q9Y6E7).
T1 construct: 6xHis (followed by human rhinovirus 3C protease site) (N); made in house; host or cells: E. coli BL21(DE3), co-expressed with GroEL and GroES
T1 sequence (Q9Y6E7 33-314): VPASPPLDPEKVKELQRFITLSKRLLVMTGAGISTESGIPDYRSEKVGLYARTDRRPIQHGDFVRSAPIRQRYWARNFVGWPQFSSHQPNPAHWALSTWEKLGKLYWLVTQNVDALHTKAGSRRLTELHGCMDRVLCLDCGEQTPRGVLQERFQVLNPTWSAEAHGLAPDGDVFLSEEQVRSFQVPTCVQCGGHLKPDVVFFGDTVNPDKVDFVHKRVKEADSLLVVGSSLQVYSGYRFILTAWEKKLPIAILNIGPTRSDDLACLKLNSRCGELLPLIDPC
The data set can be described thus: LC-MS-based in vitro peptide deacylation assay. It counts as biochemical. The settings on record: 5 μM SIRT4, 10 uM peptide, with NAD, 1 hr at 37° C. From the text: Recombinant SIRT4 protein expression and purification. N-terminally truncated human Sirt4 (33-314 of SEQ ID NO: 2) was cloned into a derivative of pET-15b containing a human rhinovirus 3C Protease cleavage site in place of its thrombin cleavage site. 6×His-Sirt4 was co-expressed with GroEL and GroES in BL21(DE3) E. coli in order to promote proper protein folding. Protein was purified using immobilized-metal affinity chromatography (IMAC) followed by anion-exchange chromatography to remove associated folding chaperones. For some experiments the His-tag was removed using 3C protease. Protein was concentrated, snap frozen in N2(l), and stored at −80° C.
LC-MS-based in vitro peptide deacylation assay. The ability of SIRT4 to hydrolyze various acyl-lysine modifications was measured using LC-MS. In 20 μL reaction volume, 10 uM peptide (lipoyl-, biotinyl-, or acetyl-lysine) was incubated with increasing concentrations of SIRT4 (0.5 μM, 2.5 μM, and 5 μM), with or without NAD, in 50 mM TrisHCl, pH 8, 137 mM NaCl, 2.7 mM KCl and 1 mM MgCl2, for 1 hr at 37° C. Reactions were quenched with 25 μL of 2% TFA and an internal control peptide was spiked in to monitor for run-to-run variability. Reaction products were desalted, eluted, concentrated and analyzed by nano-LC-MS/MS, as above, but altered LC gradients. A 30 min linear gradient from 4-40% B was used for all peptides, except for lipoyl-lysine biological peptides, which used a 12-70% B linear gradient. Data were imported into Skyline software (version 2.1) to obtain precursor extracted ion chromatographams (XICs) using the following settings: Isotope Count, 3; precursor mass analyzer, Orbitrap; Resolving power, 60,000 @ 400 Th. The retention times of substrate (modified) and product (unmodified) peptides were confirmed by fragmentation spectra and peak integration boundaries were manually inspected. Three biological replicates were analyzed for each reaction.
The lipoamide cofactor bound to E2 (transferase enzymes) is required for dehydrogenase complex activity (FIG. 1b). Given that other mitochondrial SIRTs can hydrolyze various […] group lysine modifications^3,4 and that all PDHC components were present in our SIRT4 isolation, we speculated that E2 dehydrogenase components may be biological substrates of SIRT4, and that SIRT4 may directly hydrolyze the lipoamid modification. To test this we screened the in vitro activity of recombinant SIRT4 against differentially-modified synthetic peptides (FIG. 10). Firstly, SIRT4 activity towards acyl-modified H3K9 peptides (SEQ ID NOs: 3-5) was measured using a liquid-chromatography (LC)-MS-based deacylation assay. SIRT4 was incubated with H3K9 peptides modified with acetyl-lysine (SEQ ID NO: 5), biotinyl-lysine (SEQ ID NO: 4) or lipoyl-lysine (SEQ ID NO: 3), in the presence or absence of NAD. Following reaction, the remaining unreacted substrates and newly generated unmodified peptides were identified and quantified by LC-MS (FIG. 2A, 2G-2I and FIG. 5). […] To compare the relative preference of SIRT4 for these different substrates, we used extracted ion chromatograms to quantify unreacted substrate (S) and product (P) amounts from all reactions, and represented the percentage of unmodified peptide generated (FIG. 2H). […] The relative amount of unmodified product generated using 5 μM SIRT4 was 11% (lipoyl—SEQ ID NO: 3), 3% (biotinyl—SEQ ID NO: 4) and 0.3% (acetyl—[…]) (FIG. 2B and FIG. 2H, H3K9 substrates). […]

In data set [2] the target is T1, SIRT4. The data set can be described thus: HPLC-based SIRT4 kinetics assays (steady-state, acyl-modified peptide substrates). It counts as biochemical. The source says:
Recombinant SIRT4 protein expression and purification. N-terminally truncated human Sirt4 (33-314 of SEQ ID NO: 2) was cloned into a derivative of pET-15b containing a human rhinovirus 3C Protease cleavage site in place of its thrombin cleavage site. 6×His-Sirt4 was co-expressed with GroEL and GroES in BL21(DE3) E. coli in order to promote proper protein folding. Protein was purified using immobilized-metal affinity chromatography (IMAC) followed by anion-exchange chromatography to remove associated folding chaperones. For some experiments the His-tag was removed using 3C protease. Protein was concentrated, snap frozen in N2(l), and stored at −80° C. HPLC-based SIRT4 kinetics assays. SIRT4 kinetic assays were essentially performed as described by others^3,4. Briefly, enzyme reactions (20 μL) were performed in 50 mM Tris, pH 8.0, containing 5 μM recombinant SIRT4 and varying concentrations (0 to 2500 μM) of H3K9- or DLAT-modified peptides with either acetyl-lysine, biotinyl-lysine, or lipoyl-lysine. Reactions were initiated by addition of NAD (1 mM) and incubated at 25° C. for between 30-120 min, depending on substrate-specific reaction rates and to maintain steady-state conditions. Reactions were quenched with formic acid to a final concentration of 0.5% (v/v) and analyzed by HPLC-UV detection (Ultimate 3000 RSLC/VWD-3400). Substrate and product were separated by reverse-phase chromatography (Acclaim PepMap RSLC, 75 μm×15 cm) at 0.75 μL/min. Product concentration was measured by peak integration of A280 signals. Initial reaction velocities were determined in at least duplicate and fit to a modified Briggs-Haldane equation, which substituted kcat×[SIRT4] for Vmax and allowed determination of kinetic parameters, kcat, Km and kcat/Km and their associated error (±SEM), using GraphPad Prism 5. SIRT4's catalytic efficiency towards the various acyl-modified peptide substrates was assessed (Table 1 below).

In a further data set the target is T2, SIRT3 (Homo sapiens, UniProt Q9NTG7).
T2 construct: purchased Sigma SRP0117-100UG
T2 sequence (Q9NTG7 1-399): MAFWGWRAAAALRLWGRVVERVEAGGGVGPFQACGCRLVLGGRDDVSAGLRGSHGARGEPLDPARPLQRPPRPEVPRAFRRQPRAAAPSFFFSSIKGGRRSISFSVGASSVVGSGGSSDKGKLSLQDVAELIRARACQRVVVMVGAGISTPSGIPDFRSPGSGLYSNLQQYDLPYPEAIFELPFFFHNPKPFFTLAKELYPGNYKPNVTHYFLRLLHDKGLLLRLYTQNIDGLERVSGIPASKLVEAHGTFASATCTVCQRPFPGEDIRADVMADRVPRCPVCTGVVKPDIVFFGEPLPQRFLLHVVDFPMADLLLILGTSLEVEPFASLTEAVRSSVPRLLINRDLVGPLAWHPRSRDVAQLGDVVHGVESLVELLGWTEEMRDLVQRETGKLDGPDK
Description: Steady-state kinetic analysis of SIRT3 with DLAT K259 peptides. It counts as biochemical.

In a further data set the target is T3, SIRT5 (Homo sapiens, UniProt Q9NXA8).
T3 construct: purchased Sigma SRP0119-100UG
T3 sequence (Q9NXA8 37-310): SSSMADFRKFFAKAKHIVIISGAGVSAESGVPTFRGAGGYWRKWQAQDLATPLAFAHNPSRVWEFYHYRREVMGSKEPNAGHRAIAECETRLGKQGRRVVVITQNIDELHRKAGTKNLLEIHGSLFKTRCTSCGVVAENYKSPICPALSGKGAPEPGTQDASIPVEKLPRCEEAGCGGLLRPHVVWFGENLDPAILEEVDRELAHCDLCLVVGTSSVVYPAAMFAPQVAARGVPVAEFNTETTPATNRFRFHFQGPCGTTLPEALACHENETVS
Description: Kinetic analysis of SIRT5 with DLAT K259 peptides. It counts as biochemical.

The subject of the next data set is SIRT4 mRNA. Description: SIRT4 knock-down efficiency by qRT-PCR in MRC5 cells stably expressing shRNA. It counts as cell-based, human. The settings on record: MRC5 fibroblasts, mRNA level by qPCR; listed as construct #5. The source says:
SIRT4 shRNA expression. pLKO.1-puro vectors containing either non-targeting control shRNA or SIRT4-targeting shRNA were purchased from Sigma-Aldrich and are listed in FIG. 11. To generate MRC5 cells stably expressing each of the shRNA constructs, HEK293T cells were co-transfected with appropriate pLKO.1 vector, pCMVΔR8.2 (Addgene, plasmid #12263) and pMD2.G (Addgene, plasmid #12259) using FuGENE 6. Media containing lentivirus particles were used to transduce MRC5 cells, which were subsequently selected with 2 μg/mL puromycin (InvivoGen, cat. #ant-pr-1). Knockdown efficiency was measured by qRT-PCR and western blotting.
qRT-PCR analysis. For qRT-PCR analysis, MRC5 cells were collected and washed with PBS. Total RNA was isolated from cell pellets using RNeasy Mini Kit (Qiagen, cat. #74104) and the concentration/purity determined by measuring the absorbance 260/280 nm using NanoDrop Spectrophotometer (Thermo Fisher Scientific). For cDNA synthesis, 1 μg of RNA from each sample was first treated with DNase I (Life Technologies, cat. #18068015) and then used as a template in the RETROscript kit (Life Technologies, cat. #AM1710). The cDNAs were mixed with appropriate primers listed in FIG. 12 and Power SYBR green PCR master mix (Life Technologies, cat. #4368706) for qRT-PCR on ABI 7900HT Real-Time Thermocycler (Applied Biosystems). […]

[3] abbreviates: SIRT4 enzyme concentration = 5 μM, NAD 1 mM, 25° C.

Primed or numbered codes have the meaning given here. Ends that are not written are not given here. * marks the point of attachment. lipoyl″ = O=C(CCCC[C@@H]1CCSS1)* A value given as a limit tells only on which side of the number the result lay.

As for “DLAT K259 Lipoyl: synthetic DLAT K259 peptide with lipoyl-lysine (SEQ ID NO: 8) (EIETDK(lipoyl″)ATIGWW)”, the “relative amount of unmodified product generated” value with SIRT4 [1] is recorded as 33%. In the data set with SIRT4 [2] (setting [3]), the Michaelis-Menten constant (Km) turned out to be 239 ± 51 µM and the kcat came out at 0.0016 ± 0.0001 s⁻¹. The “increase in efficiency compared to H3K9 lipoyl” value with SIRT4 [2] (another experiment (Table 1)) was 3.3 fold. In addition, in the data set with SIRT4 [2] (first experiment), the “increased efficiency compared to H3K9 lipoyl” value is listed as 3.5 fold. In the data set with SIRT4 [2] (versus MCD acetyl), the “efficiency of hydrolysis by SIRT4, fold more than deacetylation of MCD” value is on record as roughly 1270 fold. Besides, in the data set with SIRT3, the “SIRT3 efficiency, fold lower than for DLAT acetyl” value turned out to be 13 fold and the SIRT3 enzymatic activity result is reported as “some enzymatic activity”. For the same substance, the SIRT5 activity entry in the data set with SIRT5 is given as “no activity was detected”.

In the data set with SIRT4 mRNA, “shSIRT4 #5: SIRT4-targeting shRNA construct in pLKO.1-puro vector, purchased from Sigma-Aldrich (DNA CCGGACAGGGACTTTCACTTGAATCCTCGAGGATTCAAGTGAAAGTCCCTGTTTTTTG)” displayed an SIRT4 knock-down greater than 80%.
